In series [1] the test system is alpha-1,2-fucosyltransferase His6-Propeptide-WbgL. Put plainly: Acceptor substrate spectrum by HPAEC-PAD activity assay. The format is biochemical, Escherichia coli O126. The following applies: acceptor substrate instead of 5 mM lactose; 2 mM GDP-β-L-fucose; relative to lactose. How it is done: (§1) Enzyme activity was also determined by HPAEC-PAD analysis for detection of 2′-fucosyllactose. The assay solution contained 2 mM GDP-β-L-fucose, 5 mM lactose, 50 mM Tris-HCl pH 7.6 with 2 mM MnCl2, 1 mM DTT, 1 U alkaline phosphatase in a total volume of 175 μl and was incubated at 30° C. after the addition of […] and purified enzyme solution. The reaction was stopped by heating for 5 min at 95° C. at different time points where the conversion rate was linear. The centrifuged samples were analysed by Dionex HPAEC-PAD (Dionex Corporation, Sunnyvale, Calif., USA) on CarboPac PA1 column using Chromeleon™ 6.40 Software. The elution was carried out with 50 mM NaOH at 30° C. (flow rate 1 mL/min, 50 μL injection volume). The concentration of the generated trisaccharide 2′-fucosyllactose was determined by a standard calibration curve with commercially available 2′-fucosyllactose and used for subsequent calculation of enzyme activity (see FIG. 6).
(§2) For both, HPAEC-PAD and photometric assays, 1 U of His6-Propeptide-WbgL is the amount of enzyme which produces 1 μmol product (GDP or 2′-fucosyllactose) per minute under standard assay conditions.
The substrate spectrum of recombinant His6-Propeptide-WbgL was analysed by HPAEC-PAD according to activity assay described above. Instead of 5 mM lactose different acceptor substrates were tested to determine the relative activity compared to lactose.

Series [2] concerns OC[C@H]1O[C@@H](O[C@H]2[C@H](O)[C@@H](O)C(O)O[C@@H]2CO)[C@H](O)[C@@H](O)[C@H]1O. The experiment in a line: Kinetic analysis by photometric pyruvate kinase/lactate dehydrogenase assay (initial rates, Michaelis-Menten). The format is biochemical, Escherichia coli O126. The following applies: other: lactose varied 0.05 to 40 mM at 2 mM GDP-beta-L-fucose, GDP-beta-L-fucose varied 0.02 to 4 mM at 10 mM lactose, 30° C., pH 7.6. How it is done:
(§3) The photometric assay was performed using the pyruvate kinase/lactate dehydrogenase system for the detection of released GDP (Barratt, D. H., L. Barber, et al. (2001). “Multiple, distinct isoforms of sucrose synthase in pea.” Plant Physiology 127(2): 655-664.). The reaction mixture for the microtiter plate assay contained 50 mM Tris-HCl pH 7.6, 2 mM GDP-beta-L-fucose, 5 mM Lactose, 1 mM phosphoenolpyruvate, 1 mM DTT, 0.25 mM NADH, 2 mM MnCl2, 5 U pyruvate kinase, and 5 U lactate dehydrogenase in a total volume of 250 μl. The reaction was started by addition of 100 μl enzyme solution and followed at 340 nm at 30° C. Control experiments for the detection of side activities were done without acceptor substrate lactose (see FIG. 5).
as §2
(§4) The kinetic constants of His6-Propeptide-WbgL for the acceptor substrate lactose and the donor substrate GDP-beta-L-fucose were derived from initial rate analysis at a variable substrate concentrations using the photometric assay described above. GDP-beta-L-fucose was varied from 0.02 mM to 4 mM at a constant concentration of 10 mM lactose and lactose was altered from 0.05 to 40 mM at a constant concentration of 2 mM GDP-beta-L-fucose. All data were determined by non linear-regression analysis according to the Michaelis-Menten equation using the Sigma Plot 10 software (SPSS Science Software GmbH, Erkrath, Germany).

For series [3], the system named is C[C@@H]1O[C@H](OP(=O)(O)OP(=O)(O)OC[C@H]2O[C@@H](n3cnc4c(=O)[nH]c(N)nc43)[C@H](O)[C@@H]2O)[C@@H](O)[C@H](O)[C@@H]1O. The series is described as above. The conditions noted are these: other: lactose varied 0.05 to 40 mM at 2 mM GDP-beta-L-fucose, GDP-beta-L-fucose varied 0.02 to 4 mM at 10 mM lactose, 30° C., pH 7.6. In kind it is biochemical, Escherichia coli O126. How it is done: as §3, §2, §4

Series [4] can be described thus: pH optimum and metal ion dependency of the enzyme (HPAEC-PAD assay). The format is biochemical. The method, then:
as §1
To study the optimal pH value for the activity of recombinant His6-Propeptide-WbgL, assays were performed at different pH values of a 50 mM Tris-HCl buffer ranging from pH 6.8 to 8.4. Optimal pH value was 7.6 (see. FIG. 8). Addition of metal ions Mn^2+ to standard assays allowed to investigate the metal ion dependency. All samples were analyzed HAPAEC-PAD as described above.

In series [5] the test system is E. coli BL21(DE3) ΔlacZ pDEST14-fkp pCOLA-lacY-fucP. Put plainly: Production of 2'-fucosyllactose in recombinant E. coli expressing a fucosyltransferase (HPLC). In kind it is cell-based, Escherichia coli. The method, then: Cells E. coli BL21(DE3) ΔlacZ pDEST14-fkp pCOLA-lacY-fucP were transformed with pACYCDuet-1 carrying the appropriate fucosyltransferase gene. Colonies were grown on 2YT plates with the appropriate antibiotics. 5 ml over night cultures (2YT with antibiotics) were grown of each strain and from this cultures 15 ml mineral medium each were inoculated to 1%. Cells were grown using glycerol as carbon source and at OD600=0.5 were induced with 0.1 mM IPTG and 40 mM lactose and 30 mM fucose were added. Cultures were incubated at 30° C. and 120 rpm. Production of 2′-fucosyllactose was monitored HPLC analysis. The comparison of the amount of 2′-fucosyllactose (2′-FL) produced by expression of FucT2 from Helicobacter pylori compared to the expression of WbgL from Escherichia coli O126 is shown in the following table 1: […]

For `CC(=O)NC1C(O)OC(CO)C(OC2OC(CO)C(O)C(O)C2NC(C)=O)C1O` (stereo not shown) [LacDiNAc], the Relative activity in series [1] worked out at 0%. Turning to `CC(=O)N[C@H]1C(O)O[C@H](CO)[C@@H](O[C@@H]2O[C@H](CO)[C@H](O)[C@H](O)[C@H]2O)[C@@H]1O` (stereo partly shown) [LacNAc Typ II], the Relative activity in series [1] was found to be 95%.

With `OC[C@H]1O[C@@H](O[C@H]2[C@H](O)[C@@H](O)C(O)O[C@@H]2CO)[C@H](O)[C@@H](O)[C@H]1O` (stereo partly shown) [Lactose], the Relative activity in series [1] is 100%. Same read-out and setting: as for `OC[C@H]1O[C@@H](O[C@@H]2[C@@H](CO)OC(O)(CO)[C@H]2O)[C@H](O)[C@@H](O)[C@H]1O` (mixture of isomers) [Lactulose], the figure is 124%; as for `CC(=O)N[C@@H]1[C@@H](O[C@@H]2O[C@H](CO)[C@H](O)[C@H](O)[C@H]2O)[C@H](O)[C@@H](CO)O[C@@H]1O` [LacNAc Typ I], 28%. Still for that read-out and setting: as for `N[C@H]1C(O)O[C@H](CO)[C@H](O)[C@@H]1O` (stereo partly drawn) [D-GalNH2], the figure is 0%; as for `CC(=O)N[C@H]1C(O)O[C@H](CO)[C@H](O)[C@@H]1O` (stereo partly drawn) [D-GalNAc], 0%; as for `O=C[C@H](O)[C@@H](O)[C@@H](O)[C@H](O)CO` [D-Galactose], 71%. In general, Km refers to the concentration of substrate that gives half-maximal velocity. In general, Vmax refers to the top rate of the reaction or transport when substrate is in excess. For the molecule “recombinant alpha-1,2-fucosyltransferase His6-Propeptide-WbgL (Escherichia coli)”, in series [2], the Km came out at 5300 µM, the Vmax came to 0.17 µmol/min/mg and the Vmax/Km came to 32 µL/min/mg. Moreover, in series [3], the Km was determined as 270 µM, the Vmax came to 0.167 µmol/min/mg and the Vmax/Km was determined as 618 µL/min/mg. On to `OC[C@H]1O[C@@H](O[C@H]2[C@H](O)[C@@H](O)[C@H](OCc3ccccc3)O[C@@H]2CO)[C@H](O)[C@@H](O)[C@H]1O` [β-Benzyl-Lactose], for which the Relative activity in series [1] was 50%.

B1: His6-Propeptide-WbgL: recombinant WbgL with N-terminal His-Tag and S. hyicus lipase propeptide (513 amino acids), expressed from pETHIS6PropwbgL in E. coli (protein)
chain: NDSTTQTTTPLEVAQTSQQETHTHQTPVTSLHTATPEHVDDSKEATPLPEKAESPKTEVTVQPSSHTQEVPALHKKTQQQPAYKDKTVPESTIASKSVESNKATENEMSPVEHHASNVEKREDRLETNETTPPSVDREFSHKIINNTHVNPKTDGQTNVNVDTKTIDTVSPKDDRIDTAQPKQVDVPKENTTAQNKFTSQASDKKPTMSIIRLQGGLGNQLFQFSFGYALSKINGTPLYFDISHYAENDDHGGYRLNNLQIPEEYLQYYTPKINNIYKLLVRGSRLYPDIFLFLGFCNEFHAYGYDFEYIAQKWKSKKYIGYWQSEHFFHKHILDLKEFFIPKNVSEQANLLAAKILESQSSLSIHIRRGDYIKNKTATLTHGVCSLEYYKKALNKIRDLAMIRDVFIFSDDIFWCKENIETLLSKKYNIYYSEDLSQEEDLWLMSLANHHIIANSSFSWWGAYLGSSASQIVIYPTPWYDITPKNTYIPIVNHWINVDKHSSC
modifications: left off: small tags and cut ends
notes: recombinant WbgL with N-terminal His-Tag and S. hyicus lipase propeptide (513 amino acids), expressed from pETHIS6PropwbgL in E. coli
Consider B1, for which the “Optimal pH value” in series [4] (50 mM Tris-HCl buffer, pH 6.8 to 8.4) is given as 7.6. Further, in series [4] (addition of Mn^2+ to standard assays), the “Metal ion dependency (Mn^2+)” value is on record as “not dependent on Mn^2+ ions”.

B2: WbgL: alpha-1,2-fucosyltransferase WbgL from E. coli O126 (SEQ ID No. 2), expressed from pACYC-wbgL (protein, listed as Escherichia coli)
chain: MSIIRLQGGLGNQLFQFSFGYALSKINGTPLYFDISHYAENDDHGGYRLNNLQIPEEYLQYYTPKINNIYKLLVRGSRLYPDIFLFLGFCNEFHAYGYDFEYIAQKWKSKKYIGYWQSEHFFHKHILDLKEFFIPKNVSEQANLLAAKILESQSSLSIHIRRGDYIKNKTATLTHGVCSLEYYKKALNKIRDLAMIRDVFIFSDDIFWCKENIETLLSKKYNIYYSEDLSQEEDLWLMSLANHHIIANSSFSWWGAYLGSSASQIVIYPTPWYDITPKNTYIPIVNHWINVDKHSSC
Take B2: the “Yield 2′-FL” value in series [5] (0.1 mM IPTG, 40 mM lactose, 30 mM fucose, 30° C., 120 rpm) is on record as 4.05 mM. The “Amount of fucosylated product 2′-fucosyllactose compared to FucT2 from Helicobacter pylori” value in series [5] (same cultures as Table 3) was “significantly higher”.

These data come from patent publication US9611285B2, “Fucosyltransferases and their applications” (Jennewein Biotechnologie GmbH, priority 2011, dated 2017).
